The supplement of paper PMC7877785
± gives the uncertainty stated by the source.

Test: self-splicing fitness, log relative to wild type (ln ratio); higher = more splicing; Tetrahymena group I intron in knt gene, E. coli kanamycin selection, DiMSum; sequences stand for … in CUCUCU…GGAGGGAAAAGUUAUCAGGCAUGCACCUGGUAGCUAGUCUUUAAACCAAUAGAUUGCAUCGGUUUAAAAGGCAAGACCGUCAAAUUGCGGGAAAGGGGUCAACAGCCGUUCAGUACCAAGUCUCAGGGGAAACUUUGAGAUGGCCUUGCAAAGGGUAUGGUAAUAAGCUGACGGACAUGGUCCUAACCACGCAGCCAAGUCCUAAGUCAACAGAUCUUCUGUUGAUAUGGAUGCAGUUCACAGACUAAAUGUCGGUCGGGGAAGAUGUAUUCUUCUCAUAAGAUAUAGUCGGACCUCUCCUUAAUGGGAGCUAGCGGAUGAAGUGAUGCAACACUGGAGCCGCUGGGAACUAAUUUGUAUGCGAAAGUAUAUUGAUUAGUUUUGGAGUACUCGUGGUCG
Summary of the method: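 Six replicate transformations of E. coli BL21(DE3) with a pET-22b(+) library were grown overnight at 37°C or 30°C. The library randomised all eight P1ex-region intron nucleotides, the intron lying in the knt kanamycin-resistance gene, and plates were LB agar with or without 25 μg/mL kanamycin plus 100 μg/mL carbenicillin, 50 μM IPTG and 0.2% rhamnose. Pooled colonies were amplicon-sequenced on an Illumina HiSeq 2500, and fitness is the DiMSum error-weighted combination of wild-type-normalised replicate fold changes, kanamycin versus none.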

Sequence | self-splicing fitness (ln) (37 °C) | self-splicing fitness (ln) (30 °C)
CCUGAGCAAUAUUACGGUCU | -3.78 ± 0.42 | –
CCUGAGCAAUAUUACGGUUG | -1.3 ± 0.1 | -3.44 ± 0.13
CCUGAGCAAUAUUACGUAGU | -1.21 ± 0.14 | -3.18 ± 0.14
CCUGAGCAAUAUUACGUCUA | -1.69 ± 0.3 | -2.86 ± 0.31
CCUGAGCAAUAUUACGUUGA | -3.27 ± 0.25 | -3.7 ± 0.26
CCUUAGCAAUAUUACGAAUA | -2.21 ± 0.5 | -2.52 ± 0.27
CCUUAGCAAUAUUACGAAUU | -2.29 ± 0.49 | –
CCUUAGCAAUAUUACGACAA | -3.02 ± 0.35 | -3.31 ± 0.2
CCUUAGCAAUAUUACGACAC | -2.1 ± 0.25 | -2 ± 0.14
CCUUAGCAAUAUUACGACAG | -0.864 ± 0.14 | -1.81 ± 0.11
CCUUAGCAAUAUUACGACUA | -2.23 ± 0.5 | –
CCUUAGCAAUAUUACGACUG | -0.308 ± 0.096 | -2.26 ± 0.12
CCUUAGCAAUAUUACGAUGA | -1.71 ± 0.28 | -3 ± 0.43
CCUUAGCAAUAUUACGCCCG | -1.49 ± 0.21 | -1 ± 0.13
CCUUAGCAAUAUUACGCGAA | -2.62 ± 0.29 | -4.02 ± 0.26
CCUUAGCAAUAUUACGCGAG | -3.27 ± 0.28 | -4.2 ± 0.31
CCUUAGCAAUAUUACGCGCA | -1.89 ± 0.34 | -2.45 ± 0.4
CCUUAGCAAUAUUACGCGCU | -3.41 ± 0.42 | -3.13 ± 0.32
CCUUAGCAAUAUUACGCGGG | -2.21 ± 0.2 | -3.22 ± 0.16
CCUUAGCAAUAUUACGGAAG | -1.13 ± 0.14 | -2.61 ± 0.14
CCUUAGCAAUAUUACGGCUU | -1.99 ± 0.2 | -3.99 ± 0.37
CCUUAGCAAUAUUACGGGGC | -3.06 ± 0.32 | -3.39 ± 0.27
CCUUAGCAAUAUUACGGUGG | -1.36 ± 0.15 | -2.71 ± 0.15
CCUUAGCAAUAUUACGUAAG | -0.938 ± 0.12 | -1.28 ± 0.097
CGAAAGCAAUAUUACGAAAC | -2.14 ± 0.21 | -2.85 ± 0.19

Sequence | self-splicing fitness (ln) (37 °C) | self-splicing fitness (ln) (30 °C)
CGAAAGCAAUAUUACGAAAU | -2.96 ± 0.24 | -2.32 ± 0.19
CGAAAGCAAUAUUACGAACG | -0.291 ± 0.14 | -1.08 ± 0.13
CGAAAGCAAUAUUACGACAG | -0.0312 ± 0.081 | -0.552 ± 0.068
CGAAAGCAAUAUUACGCACC | -0.396 ± 0.19 | -1.17 ± 0.14
CGAAAGCAAUAUUACGCAUG | -0.368 ± 0.11 | -1.56 ± 0.1
CGAAAGCAAUAUUACGCGAG | -2.26 ± 0.22 | -2.88 ± 0.25
CGAAAGCAAUAUUACGGAUU | -2.63 ± 0.19 | -3.5 ± 0.2
CGAAAGCAAUAUUACGGCAU | -0.29 ± 0.089 | -2.26 ± 0.12
CGAAAGCAAUAUUACGGCCC | -0.196 ± 0.35 | -1.42 ± 0.19
CGAAAGCAAUAUUACGGGAG | -2.56 ± 0.13 | -3.09 ± 0.12
CGAAAGCAAUAUUACGGGCA | -0.138 ± 0.1 | -1.85 ± 0.11
CGAAAGCAAUAUUACGGGGU | -1.94 ± 0.18 | -3.65 ± 0.21
CGAAAGCAAUAUUACGGUGC | -2.65 ± 0.21 | -3.09 ± 0.17
CGAAAGCAAUAUUACGGUGU | -1.66 ± 0.11 | -2.55 ± 0.088
CGAAAGCAAUAUUACGUCUG | 0.364 ± 0.078 | -0.362 ± 0.066
CGAAAGCAAUAUUACGUGAA | -1.17 ± 0.12 | -2.52 ± 0.092
CGAAAGCAAUAUUACGUGUU | -2.54 ± 0.17 | -4.1 ± 0.18
CGAAAGCAAUAUUACGUUAA | -1.42 ± 0.12 | -2.27 ± 0.15
CGAAAGCAAUAUUACGUUGG | -0.961 ± 0.097 | -1.66 ± 0.08
CGACAGCAAUAUUACGAAGA | -2.09 ± 0.16 | -2.29 ± 0.17
CGACAGCAAUAUUACGAAGU | -3.18 ± 0.43 | -4.32 ± 0.37
CGACAGCAAUAUUACGACAC | -1.97 ± 0.22 | -1.96 ± 0.13
CGACAGCAAUAUUACGACCG | 0.0442 ± 0.18 | -0.981 ± 0.1
CGACAGCAAUAUUACGACGU | 0.0477 ± 0.086 | -1.07 ± 0.07
CGACAGCAAUAUUACGAGCG | -0.549 ± 0.099 | -2.02 ± 0.13

Sequence | self-splicing fitness (ln) (37 °C) | self-splicing fitness (ln) (30 °C)
CGACAGCAAUAUUACGAUUU | -1.26 ± 0.087 | -2.34 ± 0.075
CGACAGCAAUAUUACGCACG | -2.31 ± 0.35 | -3.74 ± 0.4
CGACAGCAAUAUUACGGCAA | -1.58 ± 0.17 | -2.12 ± 0.21
CGACAGCAAUAUUACGGUGG | -0.756 ± 0.1 | -1.73 ± 0.097
CGACAGCAAUAUUACGUAGG | -0.934 ± 0.076 | -0.919 ± 0.062
CGACAGCAAUAUUACGUCGC | -3.74 ± 0.33 | -3.71 ± 0.25
CGACAGCAAUAUUACGUCGU | -2.29 ± 0.11 | -4.07 ± 0.19
CGACAGCAAUAUUACGUCUG | -0.38 ± 0.092 | -1.54 ± 0.083
CGACAGCAAUAUUACGUGGU | -3.34 ± 0.17 | -3.79 ± 0.18
CGACAGCAAUAUUACGUUAA | -2.19 ± 0.18 | -3.04 ± 0.22
CGACAGCAAUAUUACGUUGU | -3.25 ± 0.15 | -3.46 ± 0.1
CGAGAGCAAUAUUACGAAGG | -2.69 ± 0.32 | -3.4 ± 0.22
CGAGAGCAAUAUUACGACGC | – | -1.91 ± 0.42
CGAGAGCAAUAUUACGACGG | -0.616 ± 0.18 | -0.704 ± 0.16
CGAGAGCAAUAUUACGACGU | -3.04 ± 0.43 | -2.81 ± 0.22
CGAGAGCAAUAUUACGAUGA | -1.27 ± 0.25 | -2.11 ± 0.28
CGAGAGCAAUAUUACGAUGG | -0.694 ± 0.16 | -3.15 ± 0.2
CGAGAGCAAUAUUACGCACG | -1.76 ± 0.3 | -3.55 ± 0.29
CGAGAGCAAUAUUACGCAUA | -1.44 ± 0.49 | -2.12 ± 0.44
CGAGAGCAAUAUUACGCGGA | -1.37 ± 0.19 | -2.34 ± 0.37
CGAGAGCAAUAUUACGCGGU | -2.4 ± 0.24 | -3.23 ± 0.23
CGAGAGCAAUAUUACGCUAG | -2.77 ± 0.4 | –
CGAGAGCAAUAUUACGCUGC | -2.48 ± 0.37 | -2.93 ± 0.36
CGAGAGCAAUAUUACGGAAC | – | -1.56 ± 0.44
CGAGAGCAAUAUUACGGAGG | – | -2.7 ± 0.49

Sequence | self-splicing fitness (ln) (37 °C) | self-splicing fitness (ln) (30 °C)
CGAGAGCAAUAUUACGGCGG | -0.665 ± 0.26 | -1.63 ± 0.14
CGAGAGCAAUAUUACGGCGU | -1.2 ± 0.19 | -2.46 ± 0.28
CGAGAGCAAUAUUACGGCUC | – | -1.09 ± 0.21
CGAGAGCAAUAUUACGGGUG | -2.01 ± 0.16 | -2.95 ± 0.15
CGAGAGCAAUAUUACGUCGG | -0.79 ± 0.15 | -2.51 ± 0.15
CGAGAGCAAUAUUACGUUUC | -2.59 ± 0.27 | -2.76 ± 0.25
CGAUAGCAAUAUUACGAAAU | -2.5 ± 0.33 | -3.36 ± 0.28
CGAUAGCAAUAUUACGAACA | -1.38 ± 0.27 | -2.13 ± 0.47
CGAUAGCAAUAUUACGAACU | -0.465 ± 0.13 | -0.913 ± 0.097
CGAUAGCAAUAUUACGACCA | -0.619 ± 0.33 | -0.39 ± 0.46
CGAUAGCAAUAUUACGAGAA | -2.73 ± 0.47 | -2.67 ± 0.36
CGAUAGCAAUAUUACGAGCG | -0.453 ± 0.13 | -0.984 ± 0.12
CGAUAGCAAUAUUACGAGGA | -2.27 ± 0.38 | -3.08 ± 0.38
CGAUAGCAAUAUUACGAGUA | -1.88 ± 0.19 | -2.16 ± 0.26
CGAUAGCAAUAUUACGAGUG | -0.335 ± 0.096 | -0.68 ± 0.08
CGAUAGCAAUAUUACGAUCG | -2.39 ± 0.38 | -2.55 ± 0.24
CGAUAGCAAUAUUACGCACC | -1.09 ± 0.16 | -2.55 ± 0.15
CGAUAGCAAUAUUACGCAGC | -1.34 ± 0.24 | -4.01 ± 0.36
CGAUAGCAAUAUUACGCAUU | -1.3 ± 0.21 | -1.87 ± 0.2
CGAUAGCAAUAUUACGCCAA | -1.87 ± 0.15 | -2.66 ± 0.25
CGAUAGCAAUAUUACGCGCC | 0.215 ± 0.24 | -2.04 ± 0.33
CGAUAGCAAUAUUACGCUCG | -2.03 ± 0.47 | –
CGAUAGCAAUAUUACGCUGC | -2.21 ± 0.5 | -3.15 ± 0.36
